From FireProtDB come the findings set out here.

B1: Cyclin-dependent kinase inhibitor 2A, P42771 (parent)
chain: MEPAAGSSMEPSADWLATAAARGRVEEVRALLEAGALPNAPNSYGRRPIQVMMMGSARVAELLLLHGAEPNCADPATLTRPVHDAAREGFLDTLVVLHRAGARLDVRDAWGRLPVDLAEELGHRDVARYLRAAAGGTRGSNHARIDAAEGPSDIPD
B2: Catalase-peroxidase 2, A4QUT2 (parent)
chain: MHASLSSWLLAASLLTQPISVSGQGCPFAKRDGTVDSSLPQKRADAPETTTFGRCAVKSNQAGGGTRSHDWWPCQLRLDVLRQFQPSQNPLGGDFDYAEAFQSLDYEAVKKDIAALMTESQDWWPADFGNYGGLFVRMAWHSAGTYRAMDGRGGGGMGQQRFAPLNSWPDNQNLDKARRLIWPIKQKYGNKISWADLMLLTGNVALENMGFKTLGFGGGRADTWQSDEAVYWGAETTFVPQGNDVRYNNSVDINARADKLEKPLAATHMGLIYVNPEGPNGTPDPAASAKDIREAFGRMGMNDTETVALIAGGHAFGKTHGAVKGSNIGPAPEAADLGMQGLGWHNSVGDGNGPNQMTSGLEVIWTKTPTKWSNGYLESLINNNWTLVESPAGAHQWEAVNGTVDYPDPFDKTKFRKATMLTSDLALINDPEYLKISQRWLEHPEELADAFAKAWFKLLHRDLGPTTRYLGPEVPKESFIWQDPLPAREGDLIDDADVDKLKAAILSTDGLDVSKLASTAMACATTYRNSDKRGGCNGARIALEPQRNWVSNNPTQLSAVLDALKKVQSDFNGSNGNKKVSLADLIVLGGTAAVEKAAKDAGVDIKVPFSAGRVDATQEQTDVTQFSYLEPQADGFRNYGRGTARARTEEIMVDKASQLTLTPPELTVLVGGMRALGANYDGSDVGVFTANKGKLTPDFFVNLVDMNIAWTASGADGESWVGTDRKSRSEKYKGSRADLVFGSHAELRAIAEVYAENGNQEKFVKDFVAAWTKVMNLDRFDLKVKK
B3: Superoxide dismutase [Mn], mitochondrial, P04179 (parent)
chain: MLSRAVCGTSRQLAPVLGYLGSRQKHSLPDLPYDYGALEPHINAQIMQLHHSKHHAAYVNNLNVTEEKYQEALAKGDVTAQIALQPALKFNGGGHINHSIFWTNLSPNGGGEPKGELLEAIKRDFGSFDKFKEKLTAASVGVQGSGWGWLGFNKERGHLQIAACPNQDPLQGTTGLIPLLGIDVWEHAYYLQYKNVRPDYLKAIWNVINWENVTERYMACKK
B4: Tryptophan synthase alpha chain, P0A877 (parent)
chain: MERYESLFAQLKERKEGAFVPFVTLGDPGIEQSLKIIDTLIEAGADALELGIPFSDPLADGPTIQNATLRAFAAGVTPAQCFEMLALIRQKHPTIPIGLLMYANLVFNKGIDEFYAQCEKVGVDSVLVADVPVEESAPFRQAALRHNVAPIFICPPNADDDLLRQIASYGRGYTYLLSRAGVTGAENRAALPLNHLVAKLKEYNAAPPLQGFGISAPDQVKAAIDAGAAGAISGSAIVKIIEQHINEPEKMLAALKVFVQPMKAATRS

Broadly, the Tm is the temperature at the midpoint of the melting transition.

Variants of B1 are the subject of one data set. The following applies: Homo sapiens; pH 7.5; 25 °C; Urea; CD; Sodium phosphate 15 mM; NaCl 100 mM; reversible: yes; structure 1A5E; whole UniProt chain shown.
Take P81L: the denaturant m value was found to be 1.1 kcal/mol/M and the “denaturant midpoint (higher = more stable)” value (shortened to “denaturant midpoint”) turned out to be 3.4 M.

In the case of D74N, the denaturant m value came out at 1.2 kcal/mol/M and the “denaturant midpoint” value worked out at 1.4 M.

With D84N, the denaturant m value stood at 2 kcal/mol/M and the “denaturant midpoint” value came out at 1.8 M.

The variants in another data set derive from B2. The following applies: Pyricularia oryzae (strain 70-15 / ATCC MYA-4617 / FGSC 8958); pH 7; Thermal; DSC; Phosphate buffer 5 mM; transition: 2; structure 5JHZ; whole UniProt chain shown.
M299A: the Tm is 48.2 °C.

On to Y273F, for which the Tm was determined as 43.6 °C.

Take W140F: the Tm came to 44.8 °C.

The next data set covers variants of B3. To be noted: Homo sapiens; pH 7.8; 70 °C; Thermal; DSC; Potassium phosphate 2 mM; reversible: yes; structure 1N0J; whole UniProt chain shown.
Consider MLSRAVCGTSRQLAPVLGYLGSRQKHSLPDLPYDYGALEPHINAQIMQLHHSKHHAAYVNNLNVTEEKYQEALAKGDVTAQTALQPALKFNGGGHINHSIFWTNLSPNGGGEPKGELLEAIKRDFGSFDKFKEKLTAASVGVQGSGWGWLGFNKERGHLQIAACPNQDPLQGTTGLIPLLGIDVWEHAYYLQYKNVRPDYLKAIWNVINWENVTERYMACKK [I82T], for which the “ddG of mutation (higher = less stable)” value turned out to be 2.7 kcal/mol.

The same data set, now with this note: Homo sapiens; pH 7.8; Thermal; DSC; Potassium phosphate 2 mM; reversible: yes; structure 1N0J; whole UniProt chain shown.
As to MLSRAVCGTSRQLAPVLGYLGSRQKHSLPDLPYDYGALEPHINAQIMQLHHSKHHAAYVNNLNVTEEKYQEALAKGDVTAQTALQPALKFNGGGHINHSIFWTNLSPNGGGEPKGELLEAIKRDFGSFDKFKEKLTAASVGVQGSGWGWLGFNKERGHLQIAACPNQDPLQGTTGLIPLLGIDVWEHAYYLQYKNVRPDYLKAIWNVINWENVTERYMACKK [I82T], the Tm was determined as 56.4 °C; the “change of melting temperature, mutant - wild type (higher = more stable)” value is -13.6 °C; the “unfolding enthalpy (calorimetric)” value came to 64.9 kcal/mol.

Variants of B4 are the subject of a further data set. To be noted: Escherichia coli (strain K12); pH 7; 25 °C; Thermal; DSC; tetra-borate 1 mM; reversible: yes(70-95%); structure 1WQ5; whole UniProt chain shown.
Take MERYESLFAQLKERKEGAFVPFVTLGDPGIEQSLKIIDTLIEAGADALQLGIPFSDPLADGPTIQNATLRAFAAGVTPAQCFEMLALIRQKHPTIPIGLLMYANLVFNKGIDEFYAQCEKVGVDSVLVADVPVEESAPFRQAALRHNVAPIFICPPNADDDLLRQIASYGRGYTYLLSRAGVTGAENRAALPLNHLVAKLKEYNAAPPLQGFGISAPDQVKAAIDAGAAGAISGSAIVKIIEQHINEPEKMLAALKVFVQPMKAATRS [E49Q]: the “unfolding enthalpy (calorimetric)” value was found to be 23.2 kcal/mol and the unfolding free energy stood at 7.4 kcal/mol.

The data set is the same for the next values; noted with them: Escherichia coli (strain K12); pH 7; 25.8 °C; GdnHCl; CD; Potassium phosphate 0.01 M; reversible: yes; structure 1WQ5; whole UniProt chain shown.
As to MERYESLFAQLKERKEGAFVPFVTLGDPGIEQSLKIIDTLIEAGADALQLGIPFSDPLADGPTIQNATLRAFAAGVTPAQCFEMLALIRQKHPTIPIGLLMYANLVFNKGIDEFYAQCEKVGVDSVLVADVPVEESAPFRQAALRHNVAPIFICPPNADDDLLRQIASYGRGYTYLLSRAGVTGAENRAALPLNHLVAKLKEYNAAPPLQGFGISAPDQVKAAIDAGAAGAISGSAIVKIIEQHINEPEKMLAALKVFVQPMKAATRS [E49Q], the “ddG of mutation (higher = less stable)” value was found to be 2.5 kcal/mol and the unfolding free energy turned out to be 6.3 kcal/mol.

The same data set, now with this note: Escherichia coli (strain K12); pH 7; Thermal; DSC; tetra-borate 1 mM; reversible: yes(70-95%); structure 1WQ5; whole UniProt chain shown.
In the case of MERYESLFAQLKERKEGAFVPFVTLGDPGIEQSLKIIDTLIEAGADALQLGIPFSDPLADGPTIQNATLRAFAAGVTPAQCFEMLALIRQKHPTIPIGLLMYANLVFNKGIDEFYAQCEKVGVDSVLVADVPVEESAPFRQAALRHNVAPIFICPPNADDDLLRQIASYGRGYTYLLSRAGVTGAENRAALPLNHLVAKLKEYNAAPPLQGFGISAPDQVKAAIDAGAAGAISGSAIVKIIEQHINEPEKMLAALKVFVQPMKAATRS [E49Q], the Tm is 59.4 °C and the “heat capacity change of unfolding” value amounted to 2.87 kcal/mol/K.

The data set is the same for the next values; noted with them: Escherichia coli (strain K12); pH 7.2; 25 °C; Thermal; CD; tetra-borate 1 mM; reversible: yes(70-95%); structure 1WQ5; whole UniProt chain shown.
On to MERYESLFAQLKERKEGAFVPFVTLGDPGIEQSLKIIDTLIEAGADALQLGIPFSDPLADGPTIQNATLRAFAAGVTPAQCFEMLALIRQKHPTIPIGLLMYANLVFNKGIDEFYAQCEKVGVDSVLVADVPVEESAPFRQAALRHNVAPIFICPPNADDDLLRQIASYGRGYTYLLSRAGVTGAENRAALPLNHLVAKLKEYNAAPPLQGFGISAPDQVKAAIDAGAAGAISGSAIVKIIEQHINEPEKMLAALKVFVQPMKAATRS [E49Q], for which the unfolding free energy was 6.1 kcal/mol.

Staying with this data set, now noted: Escherichia coli (strain K12); pH 7.2; Thermal; CD; tetra-borate 1 mM; reversible: yes(70-95%); structure 1WQ5; whole UniProt chain shown.
MERYESLFAQLKERKEGAFVPFVTLGDPGIEQSLKIIDTLIEAGADALQLGIPFSDPLADGPTIQNATLRAFAAGVTPAQCFEMLALIRQKHPTIPIGLLMYANLVFNKGIDEFYAQCEKVGVDSVLVADVPVEESAPFRQAALRHNVAPIFICPPNADDDLLRQIASYGRGYTYLLSRAGVTGAENRAALPLNHLVAKLKEYNAAPPLQGFGISAPDQVKAAIDAGAAGAISGSAIVKIIEQHINEPEKMLAALKVFVQPMKAATRS [E49Q]: the Tm is 59.6 °C, the “heat capacity change of unfolding” value was 2.68 kcal/mol/K and the “unfolding enthalpy (van 't Hoff)” value is 14.3 kcal/mol.

Staying with this data set, now noted: Escherichia coli (strain K12); pH 9.3; Thermal; CD; tetra-borate 1 mM; reversible: yes(70-95%); structure 1WQ5; whole UniProt chain shown.
Regarding MERYESLFAQLKERKEGAFVPFVTLGDPGIEQSLKIIDTLIEAGADALQLGIPFSDPLADGPTIQNATLRAFAAGVTPAQCFEMLALIRQKHPTIPIGLLMYANLVFNKGIDEFYAQCEKVGVDSVLVADVPVEESAPFRQAALRHNVAPIFICPPNADDDLLRQIASYGRGYTYLLSRAGVTGAENRAALPLNHLVAKLKEYNAAPPLQGFGISAPDQVKAAIDAGAAGAISGSAIVKIIEQHINEPEKMLAALKVFVQPMKAATRS [E49Q], the Tm was 59.6 °C, the “heat capacity change of unfolding” value came out at 2.68 kcal/mol/K and the “unfolding enthalpy (van 't Hoff)” value came out at 14.3 kcal/mol.

The data set is the same for the next values; noted with them: Escherichia coli (strain K12); pH 9.3; Thermal; DSC; tetra-borate 1 mM; reversible: yes(70-95%); structure 1WQ5; whole UniProt chain shown.
Consider MERYESLFAQLKERKEGAFVPFVTLGDPGIEQSLKIIDTLIEAGADALQLGIPFSDPLADGPTIQNATLRAFAAGVTPAQCFEMLALIRQKHPTIPIGLLMYANLVFNKGIDEFYAQCEKVGVDSVLVADVPVEESAPFRQAALRHNVAPIFICPPNADDDLLRQIASYGRGYTYLLSRAGVTGAENRAALPLNHLVAKLKEYNAAPPLQGFGISAPDQVKAAIDAGAAGAISGSAIVKIIEQHINEPEKMLAALKVFVQPMKAATRS [E49Q], for which the melting temperature (Tm) turned out to be 62.4 °C and the “heat capacity change of unfolding” value stood at 2.87 kcal/mol/K.
